Reference: the Human Domainome abundance scans (Beltran et al. 2025)

B1: CD2-associated protein, residues 109 to 169; numbered along this chain, Q9Y5K6 (parent)
chain: KKRQCKVLFEYIPQNEDELELKVGDIIDINEEVEEGWWSGTLNNKLGLFPSNFVKELEVTD

Variants of: B1
Experiment: abundance fitness (aPCA) (normalised: wild type 0, dead -1); higher = more abundant; growth selection in yeast, the domain comes from the species named
Settings: Homo sapiens

Abundance fitness, by site and new letter:
E32: I -0.28, L -0.689, S -0.091, A -0.38, W -0.374, K -0.188, V -0.155, R -0.407, G -0.188, M 0.178, C -0.274, T -0.094
E31: V -0.354, S -0.33, R 0.039, W -0.755, Y -0.122, T -0.087
W37: T -0.366, Y -0.448, G -0.74, S -0.77, V -0.255, P -0.541, H -0.656, R -0.375, K -0.681, M -0.267, A -0.855, F -0.201, D -0.387, I -0.524, E 0, L -0.344
E34: I -0.247, T 0.008, S 0.016, G -0.067, Q -0.147, W -0.347, Y -0.126, D -0.3, A -0.167, K 0.299, F -0.393, N -0.337, V -0.05, L -0.611, M -0.045, H 0.179
G40: T -1.02, C -0.664, L -1.17, W -0.668, A -0.747, V -0.306, Q -1.03, S -0.92, F -0.477
G36: N -0.004, C -0.467, A -0.357, V -0.651, Y -0.276, Q -0.457, P -0.939, M -0.201, E 0.041, I -0.605, K -0.278, W -0.59, R -0.323, D -0.178, H -0.375
E35: V -0.15, M -0.169, D -0.146, L -0.452, R -0.15, A -0.226, Q -0.153, K -0.352, N -0.12, Y -0.395, T -0.185, S 0.213, C 0.015, P -0.139, H -0.318
T41: A -0.182, W 0.016, V 0.078, Q -0.062, Y -0.065, F -0.274, E -0.05, I -0.246, G -0.517, R -0.171, S -0.35, H -0.158, L -0.318, N -0.011, K -0.229, M -0.162
S39: T -0.06, P -1.1, M -0.126, E -0.097, Y -0.257, K 0.166, H -0.085, A -0.349, W -0.03, Q -0.217, G -0.459, L 0.057, V 0.094, D -0.696, N -0.25
V33: A -0.132, Y -0.349, I 0.129, T -0.452, M 0.085, G -0.483, R 0.108, H -0.404, Q -0.55, K -0.262, S -0.186, E -0.192, F -0.242
W38: A -0.752, V -0.46, R -0.586, C -0.385, N -0.605, D -0.587, Q -0.55, F -0.263, K -0.669, H -0.679, I -0.057, T -0.618, P -0.787, M -0.223, S -0.49, G -0.569, Y 0.109
L42: M -0.486, C -0.174, V -0.064, A -0.391, N 0.12, E -0.922, Q -0.432, T -0.131, D -0.241, P -0.732, R -0.388, G -0.451, I -0.242, H -0.252, S 0.042, K -0.317, F -0.616
